Publication doi:10.1101/659805
Changes are numbered by the printed parent chain.

T1: FLAG-Npas4 (Mus musculus (mouse), UniProt Q8BGD7 1-802)
T1 sequence: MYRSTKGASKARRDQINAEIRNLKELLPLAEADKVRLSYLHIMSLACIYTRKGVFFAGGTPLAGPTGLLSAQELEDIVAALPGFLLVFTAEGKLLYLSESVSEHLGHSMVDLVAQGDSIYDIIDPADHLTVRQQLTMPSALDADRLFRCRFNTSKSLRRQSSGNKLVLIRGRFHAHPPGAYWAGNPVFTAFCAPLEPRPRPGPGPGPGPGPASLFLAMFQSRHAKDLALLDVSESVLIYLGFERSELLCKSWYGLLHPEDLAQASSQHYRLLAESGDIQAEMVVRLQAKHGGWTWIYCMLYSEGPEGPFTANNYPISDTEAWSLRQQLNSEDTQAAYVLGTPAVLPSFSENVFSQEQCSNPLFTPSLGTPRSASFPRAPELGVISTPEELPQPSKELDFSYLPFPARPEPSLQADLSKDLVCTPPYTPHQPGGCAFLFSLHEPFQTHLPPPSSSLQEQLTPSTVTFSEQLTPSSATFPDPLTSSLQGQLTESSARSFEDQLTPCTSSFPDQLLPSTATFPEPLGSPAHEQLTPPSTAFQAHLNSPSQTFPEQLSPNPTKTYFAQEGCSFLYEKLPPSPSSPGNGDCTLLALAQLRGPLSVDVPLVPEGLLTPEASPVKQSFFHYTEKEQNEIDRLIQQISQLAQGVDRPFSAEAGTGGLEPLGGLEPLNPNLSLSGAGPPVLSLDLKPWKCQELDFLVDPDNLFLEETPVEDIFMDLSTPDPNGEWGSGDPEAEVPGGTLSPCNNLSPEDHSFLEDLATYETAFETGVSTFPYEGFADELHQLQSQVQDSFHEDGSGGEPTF

B1: Iqsec3 promoter WT probe (dsDNA)
DNA 1: CGGGAAGCAGGGTTCCTCACGAAGCCCAGAGGTGGGAGGTGG
DNA 2: CCACCTCCCACCTCTGGGCTTCGTGAGGAACCCTGCTTCCCG
B2: Iqsec3 promoter MT probe (dsDNA)
DNA 1: B1 DNA 1 with C18A, C20A, G21A
DNA 2: B1 DNA 2 with C22T, G23T, G25T

Target: T1, FLAG-Npas4
Experiment: EMSA

Binder	binding result
B1	binds
B2	no binding
